Test results published in the DeepSol protein solubility set.

test: soluble on expression in E. coli; label from the status in PepcDB or PDB records

Sequence | soluble on expression in E. coli
MSLSKQETEKVRVFALGGVGEIGKNMYGIEVDEDIIVIDAGLMFPDDDMLGVDIVIPDVSYLVENEERVRGIILTHGHEDHIGGLSYVLKKINVPVYATKLTLGLVEEKLKEAGIHRHAELRLIDSNSRIKLGNTPVSFFRVSHSIPDCVGVCVETSQGAIVHTGDFKFDQTPVDGKHADIGKMAAIGQKGVLCLMSDSTNAERPGTTKSEAEAGKGIKDVFARTKGRLIVTSFASNVHRIQQVIQAASATNRKLAVVGKSMVRVISIAGKLGYLKIPKDLLIDMDEVNKHKPEKVAILTTGSQGEPMSALTRMAKGAHRHITITPNDTVIIAATAIPGNETSVSAVIDQLYRIGAEVIYGSQAVHASGHGSQEELKLMLNLMRPKFFLPIHGEIRMQHAHQQLALQVGIKKERIYIVEKGEVIEFTKQQARRGPKVPSGHVLIDGLGVGDVGNIVLRDRRLLSKDGILVVVVTLNKKTNTIVSGPNIISRGFVYVRESEELLEKSNELVTSILQKCVTENVNEWSSLKSNIREGLSRYLFEKTKRRPMILPIIMEEGHHHHHH | soluble
MSLSKRNKPQESKEFGFQALKINGTYVSTDIMKEERNKFFEKYKRNADVLRMNDHERNDMLLDQVIERLLLEDYVNNKSGVTATDSEVEDYINRFIKPRYGDSLGTFMSSQGYTNEEEMKAGIKEYILKHKALYKAAKEKNVTLTEQELDEGYEKHKIQNKKVDIRHIFISSQERGKEEAKKLADEIYNRLKNNEDFETLAKQYSDDEKTKESGGVITELRAGFNEAVFDNAVFTAEAGQLLEPIEVARGYEIVYVDKVTEGHHHHHH | soluble
MSLSKTSKMKKTEISKKPSELGISNKTQDDLSKYSDTVNIALFGVDRRLKTDVSRSDSIMILTMDPAHKKLKLSSIMRDTYVNVDGHGMTKITHAYAYGGPQLAIKTINENFKLNIKDYVTVDFYALEKIIDKLNGVEINVQSDEVGYLNGYIDEVSKYEKVTPNHVTSSGKQLLDGRQAVAYSRIRYTAGGDFVRTERQRTVLMAVFNKLQAQGKSNMVSMFDEILPYTETNMGSIDIAKYGTKFISSDISNIDQERFPLDGYCSGVTVDNVWYLKTDLNVTSDQMRKYIFEDVKPSPKASLVNIPEKEGHHHHHH | soluble
MSLSKVRYGVVSTAKVAPRFIEGVRLAGNGEVVAVSSRTLESAQAFANKYHLPKAYDKLEDMLADESIDVIYVATINQDHYKVAKAALLAGKHVLVEKPFTLTYDQANELFALAESCNLFLMEAQKSVFIPMTQVIKKLLASGEIGEVISISSTTAYPNIDHVTWFRELELGGGTVHFMAPYALSYLQYLFDATITHASGTATFPKGQSDSQSKLLLQLSNGVLVDIFLTTRLNLPHEMIIYGTEGRLIIPHFWKTTHAKLVRNDTSARTIQVDMVSDFEKEAYHVSQMILEGQRVSHIMTPQLTLSGVKIIEDLYRSWGKEGHHHHHH | soluble
MSLSLNFLDFEKPIVELETKIQALRDVSRHSTSASVDLDKELEQLEKKSLELKKKIFSDLGAWQVAQLARHPQRPYTLDYLKHIFTEFDELAGDRAYADDKAIVGGIARLEGRSVMVIGHQKGRETREKVKRNFGMPKPEGYRKALRLMEMAERFNMPIITFIDTAGAYPGVGAEERGQSEAIAKNLKVMSGLKVPVICNVVGEGGSGGALAIGVGDYVNMLQYSTYSVISPEGCASILWRDSDKAPQAAEAMGLIAPRLKELELIDEIIEEPLGGAHRDHKQTAENVKATLLRQLADLDALDHENLLERRYQRLMNYGYCEGHHHHHH | soluble
MSLSLPPPRRVVLTTPTHFDVEYVINPHMSENVGAVNTDVAWQQWKALRAAYTALDHTPVLVNGQSGLPDMVFCANQTLPFYDPASDSKGVVLSRMHSEQRADEVPYYARFFEEEGYAVDTLPEDLDADFEGMGDALWHPGHHLLWGGYGYRTSPEAYEALGDLLDVPIVALRLVDPDYYHLDTCLCPLDARHALVAPEAFDDAGRALIDALFETVIEVPDHEARHQFACNAHCPDGAHVLIQEGCEGTNAQLRNHDFVPVELDTSEFMKSGGSVFCMKQMIWEGHHHHHH | not soluble
MSLSLREEALHLHKVNQGKLESKSKVEVRNAKDLSLAYSPGVAEPCKDIHEDINKVYDYTMKGNMVAVVTDGTAVLGLGNIGPEAALPVMEGKAVLFKSFAGVDAFPIALNTNDVDKIVETVKLLEPTFGGVNLEDIAAPNCFIIEERLKKETNIPVFHDDQHGTAIVTVAGLVNALKLSGKSMSSIKVVANGAGAAGIAIIKLLHHYGVRDIVMCDSKGAIYEGRPNGMNDVKNEVAKFTNQDRKDGSLKDVIVDADVFIGVSVAGALTKEMVQSMAKDPIIFAMANPNPEIMPEDAREAGASVVGTGRSDFPNQVNNVLAFPGIFRGALDVRATHINEEMKIAAVEAIASLVSEDELSADYVIPAPFDKRVAPAVAKAVAKAAMETGVARITVDPEEVAEKTRKLTIIGEEGHHHHHH | soluble
MSLSMSLRDQLLKAGLVNEKQAKQATKQKQKQQRLEHKNQVDKDDSQRQAAEQAKAEKLARDQELNRQQQEKAEKKAKAAQIKQLIEGTRLPKLESDDYYNFVDAKKVKRIAVNDLIRDKLSRGSLAIVSYDGRYEIVPRDAAVKIQERDPRRVVLLNVQSQEPDEDDPYKDYVVPDDLMWEGGSHHHHHH | soluble
MSLSNRAGEILIVEDSPTQAEHLKHILEETGYQTEHVRNGREAVRFLSLTRPDLIISDVLMPEMDGYALCRWLKGQPDLRTIPVILLTILSDPRDVVRSLECGADDFITKPCKDVVLASHVKRLLSGVKRTEERYSRESITLAFGNEGHHHHHH | soluble
MSLSNTELILIRVTGEDRPGLTASVTEILAKYDATILDIGQADIHNTLSLGILFRSEERHSGFIMKELLFKASSLGVTIRFEPIGTDQYENWVGMQGKNRYILTVLGRKLSARQISAATRVLAEQDLNIDAIKRLTGRIPLDEDKTDTRTRACIEFSVRGTPKDRIAMQERLMQLASEQEMDFSFQQDNMYRRMRRLICFDMDSTLIETEVIDELAIRAGVGDEVKAITESAMRGEIDFTESFTRRVALLKGLDESVMQEIAESLPITEGVDRLMYVLKKYGYKIAILSGGFTYFGQYLQKKYGIDYVYANELEIVDGKLTGRYLGDVVDGKRKAELLRLIAQVEKVDIAQTIAVGDGANDLPMLGIAGLGIAFHAKPKVVANAKQSINTIGLDGVLYFLGFKDSYLNEGHHHHHH | soluble
MSLSPDSAHQQVSLRGGSGSEFMIVDITDGRLLGTIDSAKAMSQTHPGAVYLHQGESFVIDELDLEENLALARPELPDYTTYARSDTDIRITSAPLEDEVFDAGGGLWVANVEVQVTDRVTGYVTRLSDGTTLDATPLYLPPQILQTRAVAYTIDPLALEAMGIPAADIPGALHAAEHAAIGMLPLLATCDRWDIGGVSTALHADTGYPTVFVYDGMDGGAGFADTGFRRFAQWIEATFEVVRSCSCESGCPSCVQSPKCGNGNNPLDKAGAIKLLGAMVTLLGTSEGHHHHHH | not soluble
MSLSPKVAWWCRHPLTFLMEAADDLCYSIVDLEDGFHMGYLPFAAVQDKLQSIADIDLNQYEGSPAETIKRLRAKAINRLVKEVAQLFLDHEPDILAGKFDQSLVELSRFSPQLKEIETMTTNAVFHHPNVVRIKIAGFEVLGDLLTDFLTSVLEKQPRPKGKLLKFMLPPEHQIAPDEDNYSKILKVTDYIAGMTDLQATLLYQQLRGEGHHHHHH | soluble
MSLSQPSFGLSNTATQGTLGQQSLVQPQNQQPQLAAQQLQSQQLSRYPQLIQEQILKCKESWDSNSYKTSLRSFVYNKVNETDAILYTKPTNVSQEEWDKAIENKPSSDLIPIQVFGFEGLNNRNQIQVENVAQARVILNQILDKTKQLQQSHSFETSARIMKVQARNAQIEKRILKLGTQLAILKNRRLPLTISEEKMWGQFQELLKSSNDPAGLGKTNELWARLAVLRERAKTISEQLDSKLVIIGEGHHHHHH | soluble
MSLSRQIRYYGTGTEKVEEELQDLLPDANIIRMDNDTTRKKGAHAKLLAQFGSGEADILIGTQMIAKGLDFPNVTLVGVLNADTALGLPDFRASERTFQLLTQVSGRAGRAEKSGHVYIQTFNPDHYAIRFAQHHDYEGFFKYEMQMRHRGGYPPYYFTVQITASDLDEGVAAKRMYQLLQWLRPRLAPSTILLGPTPKPIARVNRRYYYQIVIKYKQEPNLAQTLTTLLHETQAQQRQGLQIGIDVEPLHFMEGHHHHHH | not soluble
MSLSRQIRYYGTGTQKAYDELKQVLPEARILRMDVDTTKRKGAHEKILTKFGRHEADILLGTQMIAKGLDFPNVTLVGVLNADTSLNLPDFRSSERTFQLLTQVAGRAGRANKPGEVLIQTYNPNHYAIQLAREQDYEAFYRYEMRIRKALSYPPYYFTVGLTLSHKDEQEVIKKSYEIVTLIKEGLTDKIKILGPTPKPVARTHNLYHYQIIIKYRFEDQLEIVLNHILDLTQAKENKKLRLIIDHEPQSEGHHHHHH | not soluble
MSLSSVKDFPKIKAIRSFIIGGVGSGGDYHNVKGGHWLIDSDISTPASKWEQYKKSRTSWGINVLGSFLVEIEATDGTVGFATGFGGPPACWLVHQHFERFLIGADPRNTNLLFEQMYRASMFYGRKGLPIAVISVIDLALWDLLGKVRNEPVYRLIGGATKERLDFYCTGPEPTAAKAMGFWGGKVPLPFCPDDGHEGLRKNVEFLRKHREAVGPDFPIMVDCYMSLNVSYTIELVKACLDLNINWWEECLSPDDTDGFALIKRAHPTVKFTTGEHEYSRYGFRKLVEGRNLDIIQPDVMWLGGLTELLKVAALAAAYDVPVVPHASGPYSYHFQISQPNTPFQEYLANSPDGKSVLPVFGDLFIDEPIPTKGYLTTADLDKPGFGLTINPAARAKLIPSDYLFKVPEIPQNLSTGKEIKSNEQPDKPNGTLDSLAAKVESLTTSTSSEGHHHHHH | soluble
MSLSTKDVKELAIEQAKKFGGKLEVCPKVPIETKADLGIAYTPGVAAVSSAIHEKKERAYELTTKKNTVAVISDGSAVLGLGNIGPEAAMPVMEGKAALFKRFAGVDSIPLVLDTQDTEEIIQTVKFLAPTFGGINLEDISAPRCFEIEQRLIDELDIPVFHDDQHGTAIVVLAALYNSLKLINKKIEDIHVVINGGGSAGLSITRKFLAAGVKHIIIVDRAGILSETDTALPPHHAEIAKLTNREHRTGDLATALEGADVFVGVSAPGVLKPEWIQQMNEQPVIFAMANPVPEIFPDEALAAGAYIVGTGRSDFPNQINNVLAFPGIFRGALDARAKKITIEMQIAAAKGIAKLIPDNELTPTNIIPDPFQEGVAKVVAESVRNAVKETNEGHHHHHH | soluble
MSLSTSSKVVRLDVSRSQQEAVKGVKLPALLIKLRDRCGEHNRKLLDRLFEQVDDSFFDLADKSATNSEQALFFDAMREIRLKKERIAALFMQYYNRDFQFLEVQKPGMLKANFDPQNLTLVQEDKLEEQVAIDNMVNRFKSEIGRDLEHLTIRLDSLLFDVSVEEENNPLGPLRMVTNFVTACAELELGIRAKLVFFKLFEKHVLTQNKAVLEAANKFLAEQGVMPDLSASRSVRRTGVNLPHASGSVIDQNTGAVGDYNEGGWDPQIDPLQYMRQFSDAQMAGAAGAAVNLPVVQQTALLNLLSRLQTTNKAPATALSDNGLINFMGLMERAVLSKEGQPRASVGRLDQDVMNLVTMLFEFILDDRQLPAAIRAVIARLQIPILKVALLDRTFFNQGGHSARRLLNEMATASIGWTEKAPGEPDAFLAKLEEVVQRLVTEFDNDITIFDEVLEDFIRFRESDKKRRHLLEQRTRDAEVGRAKSDAAKKVVQDVLNDMLAGKNIPALVMEVLKEGWSNYMVLLQLKSGREHPDWLQAQSVAARLIQGCDPDDTSGEAPEVAAVEKLMEELRVGLQQTAYKPFELDKTLRQLQKVLSETTQQRLAKEVTLDDEGHHHHHH | soluble
MSLSVIDLLKQRVQSAGKKPVIIFPEG | not soluble
